Laboratory results from patent publication US20260242419A1, “A CYCLIC PEPTIDE FOR TRAPPING INTERLEUKIN-1 BETA” (Merck Sharp & Dohme LLC, priority 2023, published 2026).
Starred links: 1 amine or outer side, 2 acyl side, 3 side chain; linkers in the order of their positions; H or OH if unused. Non-standard residues stand in square brackets, D forms with d. dProc3Bn4Pyrim2NMe = (2R,3S)-3-[[4-[2-(methylamino)pyrimidin-5-yl]phenyl]methyl]pyrrolidine-2-carboxylic acid, CNc1ncc(-c2ccc(C[C@H]3CCN([*:1])[C@H]3C(=O)[*:2])cc2)cn1; dProc3Bn4Pyrim2OMe = (2R,3S)-3-[[4-(2-methoxypyrimidin-5-yl)phenyl]methyl]pyrrolidine-2-carboxylic acid, COc1ncc(-c2ccc(C[C@H]3CCN([*:1])[C@H]3C(=O)[*:2])cc2)cn1; dProc3Bn4Pyrim2NH2 = (2R,3S)-3-[[4-(2-aminopyrimidin-5-yl)phenyl]methyl]pyrrolidine-2-carboxylic acid, Nc1ncc(-c2ccc(C[C@H]3CCN([*:1])[C@H]3C(=O)[*:2])cc2)cn1; dProc3Bn4Pyraz5NH2 = (2R,3S)-3-[[4-(5-aminopyrazin-2-yl)phenyl]methyl]pyrrolidine-2-carboxylic acid, Nc1cnc(-c2ccc(C[C@H]3CCN([*:1])[C@H]3C(=O)[*:2])cc2)cn1; dProc3Bn4Pyrim = (2R,3S)-3-[(4-pyrimidin-5-ylphenyl)methyl]pyrrolidine-2-carboxylic acid, O=C([C@H]1[C@@H](Cc2ccc(-c3cncnc3)cc2)CCN1[*:1])[*:2]; dProc3Bn4Pyrz = (2R,3S)-3-[(4-pyridazin-4-ylphenyl)methyl]pyrrolidine-2-carboxylic acid, O=C([C@H]1[C@@H](Cc2ccc(-c3ccnnc3)cc2)CCN1[*:1])[*:2]; dProc3Bn4Pyr3 = (2R,3S)-3-[[4-(3-pyridyl)phenyl]methyl]pyrrolidine-2-carboxylic acid, O=C([C@H]1[C@@H](Cc2ccc(-c3cccnc3)cc2)CCN1[*:1])[*:2]; dProc3Bn4Pyr4 = (2R,3S)-3-[[4-(4-pyridyl)phenyl]methyl]pyrrolidine-2-carboxylic acid, O=C([C@H]1[C@@H](Cc2ccc(-c3ccncc3)cc2)CCN1[*:1])[*:2]; TyrEtNAc = (2S)-3-[4-(2-acetamidoethoxy)phenyl]-2-amino-propanoic acid, CC(=O)NCCOc1ccc(C[C@H](N[*:1])C(=O)[*:2])cc1; dPro(4R-(4-pyridylmethyl)) = O=C(O)[C@H]1C[C@@H](Cc2ccncc2)CN1; dPro(3S-(4-Br-benzyl)) = O=C(O)[C@@H]1NCC[C@@H]1Cc1ccc(Br)cc1; Trp(βS-Me,4-F) = C[C@@H](c1c[nH]c2cccc(F)c12)[C@H](N)C(=O)O; Bip(4'-COOH) = N[C@@H](Cc1ccc(-c2ccc(C(=O)O)cc2)cc1)C(=O)O; Ala(1-bicyclo(1.1.1)pentyl) = N[C@@H](CC12CC(C1)C2)C(=O)O; dPro(4R-Bzl(4-F)) = O=C(O)[C@H]1C[C@@H](Cc2ccc(F)cc2)CN1; Ala(pyrimidin-5-yl) = N[C@@H](Cc1cncnc1)C(=O)O; Phe(4-COOH) = N[C@@H](Cc1ccc(C(=O)O)cc1)C(=O)O; Pro(cis-4-F) = O=C(O)[C@@H]1C[C@H](F)CN1; 4Pal = N[C@@H](Cc1ccncc1)C(=O)O; Cit = NC(=O)NCCC[C@H](N)C(=O)O; Dab = NCC[C@H](N)C(=O)O; Aib = CC(C)(N)C(=O)O

biological target: Recombinant human IL-1β (BioLegend 579404) (human, UniProt P01584 117-269); assay: cell-based or functional assay

| MRC5 IC50 [nM] | Binder |
| --- | --- |
| 0.018 | cyclo([Bip(4'-COOH)][4Pal][Phe(4-COOH)]G[Pro(cis-4-F)][Trp(βS-Me,4-F)][Aib]EW[Aib][Ala(pyrimidin-5-yl)]Q[Dab]G[dProc3Bn4Pyrim2OMe]) (SMILES COc1ncc(-c2ccc(C[C@H]3CCN4C(=O)CNC(=O)[C@H](CCN)NC(=O)[C@H](CCC(N)=O)NC(=O)[C@H](Cc5cncnc5)NC(=O)C(C)(C)NC(=O)[C@H](Cc5c[nH]c6ccccc56)NC(=O)[C@H](CCC(=O)O)NC(=O)C(C)(C)NC(=O)[C@H]([C@@H](C)c5c[nH]c6cccc(F)c56)NC(=O)[C@@H]5C[C@H](F)CN5C(=O)CNC(=O)[C@H](Cc5ccc(C(=O)O)cc5)NC(=O)[C@H](Cc5ccncc5)NC(=O)[C@H](Cc5ccc(-c6ccc(C(=O)O)cc6)cc5)NC(=O)[C@@H]34)cc2)cn1) [SEQ ID NO: 60] |
| 0.037 | cyclo([Bip(4'-COOH)][4Pal][Phe(4-COOH)]G[Pro(cis-4-F)][Trp(βS-Me,4-F)][Aib]EW[Aib][Ala(pyrimidin-5-yl)]Q[Dab]G[dProc3Bn4Pyrz]) (SMILES C[C@@H](c1c[nH]c2cccc(F)c12)[C@@H]1NC(=O)[C@@H]2C[C@H](F)CN2C(=O)CNC(=O)[C@H](Cc2ccc(C(=O)O)cc2)NC(=O)[C@H](Cc2ccncc2)NC(=O)[C@H](Cc2ccc(-c3ccc(C(=O)O)cc3)cc2)NC(=O)[C@H]2[C@@H](Cc3ccc(-c4ccnnc4)cc3)CCN2C(=O)CNC(=O)[C@H](CCN)NC(=O)[C@H](CCC(N)=O)NC(=O)[C@H](Cc2cncnc2)NC(=O)C(C)(C)NC(=O)[C@H](Cc2c[nH]c3ccccc23)NC(=O)[C@H](CCC(=O)O)NC(=O)C(C)(C)NC1=O) [SEQ ID NO: 58] |
| 0.022 | cyclo([Bip(4'-COOH)][4Pal][Phe(4-COOH)]G[Pro(cis-4-F)][Trp(βS-Me,4-F)][Aib]EW[Aib][Ala(pyrimidin-5-yl)]Q[Dab]G[dProc3Bn4Pyr3]) (SMILES C[C@@H](c1c[nH]c2cccc(F)c12)[C@@H]1NC(=O)[C@@H]2C[C@H](F)CN2C(=O)CNC(=O)[C@H](Cc2ccc(C(=O)O)cc2)NC(=O)[C@H](Cc2ccncc2)NC(=O)[C@H](Cc2ccc(-c3ccc(C(=O)O)cc3)cc2)NC(=O)[C@H]2[C@@H](Cc3ccc(-c4cccnc4)cc3)CCN2C(=O)CNC(=O)[C@H](CCN)NC(=O)[C@H](CCC(N)=O)NC(=O)[C@H](Cc2cncnc2)NC(=O)C(C)(C)NC(=O)[C@H](Cc2c[nH]c3ccccc23)NC(=O)[C@H](CCC(=O)O)NC(=O)C(C)(C)NC1=O) [SEQ ID NO: 56] |
| 0.018 | cyclo([Bip(4'-COOH)][4Pal][Phe(4-COOH)]G[Pro(cis-4-F)][Trp(βS-Me,4-F)][Aib]EW[Aib][Ala(pyrimidin-5-yl)]Q[Dab]G[dProc3Bn4Pyrim2NH2]) (SMILES C[C@@H](c1c[nH]c2cccc(F)c12)[C@@H]1NC(=O)[C@@H]2C[C@H](F)CN2C(=O)CNC(=O)[C@H](Cc2ccc(C(=O)O)cc2)NC(=O)[C@H](Cc2ccncc2)NC(=O)[C@H](Cc2ccc(-c3ccc(C(=O)O)cc3)cc2)NC(=O)[C@H]2[C@@H](Cc3ccc(-c4cnc(N)nc4)cc3)CCN2C(=O)CNC(=O)[C@H](CCN)NC(=O)[C@H](CCC(N)=O)NC(=O)[C@H](Cc2cncnc2)NC(=O)C(C)(C)NC(=O)[C@H](Cc2c[nH]c3ccccc23)NC(=O)[C@H](CCC(=O)O)NC(=O)C(C)(C)NC1=O) [SEQ ID NO: 59] |
| 0.019 | cyclo([Bip(4'-COOH)][4Pal][Phe(4-COOH)]G[Pro(cis-4-F)][Trp(βS-Me,4-F)][Aib]EW[Aib][Ala(pyrimidin-5-yl)]Q[Dab]G[dProc3Bn4Pyraz5NH2]) (SMILES C[C@@H](c1c[nH]c2cccc(F)c12)[C@@H]1NC(=O)[C@@H]2C[C@H](F)CN2C(=O)CNC(=O)[C@H](Cc2ccc(C(=O)O)cc2)NC(=O)[C@H](Cc2ccncc2)NC(=O)[C@H](Cc2ccc(-c3ccc(C(=O)O)cc3)cc2)NC(=O)[C@H]2[C@@H](Cc3ccc(-c4cnc(N)cn4)cc3)CCN2C(=O)CNC(=O)[C@H](CCN)NC(=O)[C@H](CCC(N)=O)NC(=O)[C@H](Cc2cncnc2)NC(=O)C(C)(C)NC(=O)[C@H](Cc2c[nH]c3ccccc23)NC(=O)[C@H](CCC(=O)O)NC(=O)C(C)(C)NC1=O) [SEQ ID NO: 57] |

Second part, the binder before the results:

| Binder | MRC5 IC50 [nM] |
| --- | --- |
| cyclo([Bip(4'-COOH)][4Pal][Phe(4-COOH)]G[Pro(cis-4-F)][Trp(βS-Me,4-F)][Aib]EW[Aib][Ala(pyrimidin-5-yl)]Q[Dab]G[dProc3Bn4Pyr4]) (SMILES C[C@@H](c1c[nH]c2cccc(F)c12)[C@@H]1NC(=O)[C@@H]2C[C@H](F)CN2C(=O)CNC(=O)[C@H](Cc2ccc(C(=O)O)cc2)NC(=O)[C@H](Cc2ccncc2)NC(=O)[C@H](Cc2ccc(-c3ccc(C(=O)O)cc3)cc2)NC(=O)[C@H]2[C@@H](Cc3ccc(-c4ccncc4)cc3)CCN2C(=O)CNC(=O)[C@H](CCN)NC(=O)[C@H](CCC(N)=O)NC(=O)[C@H](Cc2cncnc2)NC(=O)C(C)(C)NC(=O)[C@H](Cc2c[nH]c3ccccc23)NC(=O)[C@H](CCC(=O)O)NC(=O)C(C)(C)NC1=O) [SEQ ID NO: 55] | 0.024 |
| cyclo([Bip(4'-COOH)][4Pal][Phe(4-COOH)]G[Pro(cis-4-F)][Trp(βS-Me,4-F)][Aib]EW[Aib][Cit]Q[Dab]G[dPro(4R-Bzl(4-F))]) (SMILES C[C@@H](c1c[nH]c2cccc(F)c12)[C@@H]1NC(=O)[C@@H]2C[C@H](F)CN2C(=O)CNC(=O)[C@H](Cc2ccc(C(=O)O)cc2)NC(=O)[C@H](Cc2ccncc2)NC(=O)[C@H](Cc2ccc(-c3ccc(C(=O)O)cc3)cc2)NC(=O)[C@H]2C[C@@H](Cc3ccc(F)cc3)CN2C(=O)CNC(=O)[C@H](CCN)NC(=O)[C@H](CCC(N)=O)NC(=O)[C@H](CCCNC(N)=O)NC(=O)C(C)(C)NC(=O)[C@H](Cc2c[nH]c3ccccc23)NC(=O)[C@H](CCC(=O)O)NC(=O)C(C)(C)NC1=O) [SEQ ID NO: 52] | 0.021 |
| cyclo([Bip(4'-COOH)][4Pal][Phe(4-COOH)]G[Pro(cis-4-F)][Trp(βS-Me,4-F)][Aib]EW[Aib][Ala(pyrimidin-5-yl)]Q[Dab]G[dProc3Bn4Pyrim2NMe]) (SMILES CNc1ncc(-c2ccc(C[C@H]3CCN4C(=O)CNC(=O)[C@H](CCN)NC(=O)[C@H](CCC(N)=O)NC(=O)[C@H](Cc5cncnc5)NC(=O)C(C)(C)NC(=O)[C@H](Cc5c[nH]c6ccccc56)NC(=O)[C@H](CCC(=O)O)NC(=O)C(C)(C)NC(=O)[C@H]([C@@H](C)c5c[nH]c6cccc(F)c56)NC(=O)[C@@H]5C[C@H](F)CN5C(=O)CNC(=O)[C@H](Cc5ccc(C(=O)O)cc5)NC(=O)[C@H](Cc5ccncc5)NC(=O)[C@H](Cc5ccc(-c6ccc(C(=O)O)cc6)cc5)NC(=O)[C@@H]34)cc2)cn1) [SEQ ID NO: 54] | 0.021 |
| cyclo([Bip(4'-COOH)][4Pal][Phe(4-COOH)]G[Pro(cis-4-F)][Trp(βS-Me,4-F)][Aib]EW[Aib][Ala(pyrimidin-5-yl)]Q[Dab]G[dPro(3S-(4-Br-benzyl))]) [SEQ ID NO: 51] | 0.014 |
| cyclo([Bip(4'-COOH)][4Pal][Phe(4-COOH)]G[Pro(cis-4-F)][Trp(βS-Me,4-F)][Aib]EW[Aib][Ala(pyrimidin-5-yl)]Q[Dab]G[dProc3Bn4Pyrim]) (SMILES C[C@@H](c1c[nH]c2cccc(F)c12)[C@@H]1NC(=O)[C@@H]2C[C@H](F)CN2C(=O)CNC(=O)[C@H](Cc2ccc(C(=O)O)cc2)NC(=O)[C@H](Cc2ccncc2)NC(=O)[C@H](Cc2ccc(-c3ccc(C(=O)O)cc3)cc2)NC(=O)[C@H]2[C@@H](Cc3ccc(-c4cncnc4)cc3)CCN2C(=O)CNC(=O)[C@H](CCN)NC(=O)[C@H](CCC(N)=O)NC(=O)[C@H](Cc2cncnc2)NC(=O)C(C)(C)NC(=O)[C@H](Cc2c[nH]c3ccccc23)NC(=O)[C@H](CCC(=O)O)NC(=O)C(C)(C)NC1=O) [SEQ ID NO: 53] | 0.018 |
| cyclo([TyrEtNAc][Ala(1-bicyclo(1.1.1)pentyl)][Phe(4-COOH)]G[Pro(cis-4-F)][Trp(βS-Me,4-F)][Aib]EW[Aib][Ala(pyrimidin-5-yl)]Q[Dab]G[dPro(4R-(4-pyridylmethyl))]) (SMILES CC(=O)NCCOc1ccc(C[C@@H]2NC(=O)[C@H]3C[C@@H](Cc4ccncc4)CN3C(=O)CNC(=O)[C@H](CCN)NC(=O)[C@H](CCC(N)=O)NC(=O)[C@H](Cc3cncnc3)NC(=O)C(C)(C)NC(=O)[C@H](Cc3c[nH]c4ccccc34)NC(=O)[C@H](CCC(=O)O)NC(=O)C(C)(C)NC(=O)[C@H]([C@@H](C)c3c[nH]c4cccc(F)c34)NC(=O)[C@@H]3C[C@H](F)CN3C(=O)CNC(=O)[C@H](Cc3ccc(C(=O)O)cc3)NC(=O)[C@H](CC34CC(C3)C4)NC2=O)cc1) [SEQ ID NO: 50] | 0.044 |
| cyclo([Bip(4'-COOH)][4Pal][Phe(4-COOH)]G[Pro(cis-4-F)][Trp(βS-Me,4-F)][Aib]AW[Aib][Ala(pyrimidin-5-yl)]Q[Dab]G[dPro(4R-Bzl(4-F))]) (SMILES C[C@@H]1NC(=O)C(C)(C)NC(=O)[C@H]([C@@H](C)c2c[nH]c3cccc(F)c23)NC(=O)[C@@H]2C[C@H](F)CN2C(=O)CNC(=O)[C@H](Cc2ccc(C(=O)O)cc2)NC(=O)[C@H](Cc2ccncc2)NC(=O)[C@H](Cc2ccc(-c3ccc(C(=O)O)cc3)cc2)NC(=O)[C@H]2C[C@@H](Cc3ccc(F)cc3)CN2C(=O)CNC(=O)[C@H](CCN)NC(=O)[C@H](CCC(N)=O)NC(=O)[C@H](Cc2cncnc2)NC(=O)C(C)(C)NC(=O)[C@H](Cc2c[nH]c3ccccc23)NC1=O) [SEQ ID NO: 6] | 0.057 |
